Measurements taken from article PMC4536467, “A high affinity RIM-binding protein/Aplip1 interaction prevents the formation of ectopic axonal active zones” (eLife, 2015).

T1: RBP SH3-II (residue 1318–1382; ITC and crystallisation construct) (D. melanogaster)
T1 chain: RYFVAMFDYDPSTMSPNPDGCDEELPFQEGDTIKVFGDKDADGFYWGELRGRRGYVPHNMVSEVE

T2: RBP SH3-II+III (ITC construct) (D. melanogaster)
T2 chain: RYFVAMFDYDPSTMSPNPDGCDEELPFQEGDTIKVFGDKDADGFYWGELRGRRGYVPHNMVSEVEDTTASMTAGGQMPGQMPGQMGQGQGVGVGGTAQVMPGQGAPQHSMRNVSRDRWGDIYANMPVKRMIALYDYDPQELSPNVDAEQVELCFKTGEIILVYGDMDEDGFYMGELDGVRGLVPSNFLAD

T3: RBP SH3-III (ITC construct) (D. melanogaster)
T3 chain: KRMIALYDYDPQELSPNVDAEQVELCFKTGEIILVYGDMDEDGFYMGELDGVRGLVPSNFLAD

T4: RBP SH3-III (ITC construct) (D. melanogaster)
T4 construct: it may be the same protein; also called RBP-BP SH3-III
T4 chain: T3 chain

T5: RBP SH3-II (residue 1318–1382; ITC and crystallisation construct) (D. melanogaster)
T5 construct: pGEX-6P1, EcoRI/XhoI; also called RBP-BP SH3-II; source: E. coli BL21-CodonPlus-RIL, purified (glutathione sepharose, PreScission cleavage, Superdex 75); not shown: GST, N-terminal, cleaved
T5 chain: T1 chain

T6: RBP SH3-II+III (ITC construct) (D. melanogaster)
T6 construct: Cloning and purification of this construct are not described; also called tandem SH3-II+III; RBP-BP SH3-II+SH3-III
T6 chain: T2 chain

T7: RBP SH3-III (residue 1441–1507; crystallisation construct) (D. melanogaster)
T7 construct: pGEX-6P1, EcoRI/XhoI; linker residues may remain at the N-terminus after PreScission cleavage; source: E. coli BL21-CodonPlus-RIL, purified (glutathione sepharose, PreScission cleavage, Superdex 75); not shown: GST, N-terminal, cleaved
T7 chain: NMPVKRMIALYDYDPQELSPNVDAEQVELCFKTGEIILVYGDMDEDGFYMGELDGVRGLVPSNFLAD

B1: RIM2 peptide (GRQLPQLPPKGT) (peptide)
peptide: Ac-GRQLPQLPPKGT-NH2
notes: PxxP peptide named RIM2; May be a mammalian RIM2 motif or one of two motifs of Drosophila RIM; source: synthetic peptide (Leibniz Institute for Molecular Pharmacology)
B2: Aplip-PxxP1 peptide (149-TRRRRKLPEIPKNKK-163) (peptide)
peptide: Ac-TRRRRKLPEIPKNKK-NH2
notes: Aplip1, D. melanogaster, residues 149-163 with the first PxxP motif; also called Aplip1 peptide; Aplip1-PxxP1 peptide; source: synthetic peptide (Leibniz Institute for Molecular Pharmacology)
B3: Cac peptide (1685-IGRRLPPTPSKPSTL-1699) (peptide)
peptide: Ac-IGRRLPPTPSKPSTL-NH2
notes: also called Cacophony peptide; Cac-derived peptide; source: synthetic peptide (Leibniz Institute for Molecular Pharmacology)
B4: RIM1 peptide (GRQLPQVPVRSG) (peptide)
peptide: Ac-GRQLPQVPVRSG-NH2
notes: PxxP peptide named RIM1; May be a mammalian RIM1 motif or one of two motifs of Drosophila RIM; source: synthetic peptide (Leibniz Institute for Molecular Pharmacology)

Legend:
RBP SH3-III = experiment: Semi-quantitative liquid Y2H ß-galactosidase assay, bait RBP SH3-III; type: cell-based, Drosophila; details: n = 3 independent experiments, mean ± SEM
Source text: (§1) The plasmids (pP6 and pB27) encode tryptophan (Trp) and leucine (Leu) biosynthesis genes, and were successfully double transformed into the TATA strain lacking genes for synthesis of Leu and Trp which can be followed by positive growth in LT media. Reporter genes for the protein–protein interaction are HIS3, which can be later detected by growth on plates lacking histidin, as well as lacZ which allows the detection of interaction in a more quantitative fashion with a β-galactosidase assay. To transform the yeast cells with the pP6 and pB27 vector respectively the LiAc/single strand DNA/PEG technique was used ([Gietz and Schiestl, 2007]).
(§2) The assay was carried out as described in JH Miller ‘Experiments in Molecular Genetics’ 1972 Cold Spring Harbor Laboratories pages 352–355.
(§3) The RBP constructs for Y2H were cloned into pB27 bait vector. The RBP cDNA clone AT04807 (Drosophila Genomics Resource Centre) was used as a template for PCR reaction. For amplification the following primers were used: […]

RBP SH3-II = experiment: Semi-quantitative liquid Y2H ß-galactosidase assay, bait RBP SH3-II; type: cell-based, Drosophila; details: n = 3 independent experiments, mean ± SEM
Source text: as §1, §2, §3

RBP SH3-II+III = experiment: Isothermal titration calorimetry (ITC), peptide titrated into tandem RBP SH3-II+III; type: binding, Drosophila; details: second and third SH3 domain of RBP
Description: ITC experiments were performed at 25°C on an iTC200 microcalorimeter (Malvern Instruments Ltd., United Kingdom). The same peptides were employed as used for the co-crystallization experiments (see below). Lyophilized peptides were resuspended in the final buffer of the proteins (10 mM Tris-HCl pH 7.4, 100 mM NaCl). RBP SH3-II and SH3-III were both provided at a concentration of 150 µM, RBP SH3-II+III was provided at 78 µM. The proteins were titrated with 16 injections of 2.5 µl of either Aplip1, Cac, RIM1 or RIM2 peptide at a concentration of 2 mM with 2-min intervals. The released heat was obtained by integrating the calorimetric output curves. Binding parameters were calculated using the Origin5 software using the ‘One Set of Sites’ curve fitting model provided by the software.
For crystallization experiment the RBP SH3-II was concentrated to 56 mg/ml and the RBP SH3-III to 62 mg/ml. The same peptides as for ITC measurements were used and synthesized at the Leibniz Institute for Molecular Pharmacology with N-terminal acetylation and C-terminal amidation. The unsolubilized peptides were mixed in a fivefold molar excess with the protein solution and incubated for 2 hr on ice. Insoluble peptide was removed by centrifugation (16,000×g for 1 min) prior to crystallization experiments. All crystallization experiments were carried out at 291 K in a sitting drop setup. […]

RBP SH3-I = experiment: Isothermal titration calorimetry (ITC), peptide titrated into RBP SH3-I; type: binding, Drosophila; details: 25°C, result in words
[1] = system: RBP SH3-II* (Prolin1373 → Leucin); experiment: Semi-quantitative liquid Y2H ß-galactosidase assay, bait point-mutated RBP SH3-II*; type: cell-based, Drosophila; details: n = 3 independent experiments, mean ± SEM
Source text: as §1, §2
(§4) By applying the site-directed mutagenesis strategy, different constructs were designed for RBP using mutated primers. Mutagenesis was carried out by Dr Martin Meixner (SMB. GmbH, Germany,). The following point mutations were used:
RBP SH3-II*: Prolin1373 → Leucin

[2] = system: RBP SH3-III* (Prolin1500 → Leucin); experiment: Semi-quantitative liquid Y2H ß-galactosidase assay, bait point-mutated RBP SH3-III*; type: cell-based, Drosophila; details: n = 3 independent experiments, mean ± SEM
Source text: as §1, §2, §4
RBP SH3-III*: Prolin1500 → Leucin

[3] = target: T1, RBP SH3-II (residue 1318–1382; ITC and …); experiment: ITC
[4] = target: T2, RBP SH3-II+III (ITC construct); experiment: ITC
[5] = target: T3, RBP SH3-III (ITC construct, letters as …); experiment: ITC
[6] = target: T4, RBP SH3-III (ITC construct, letters as …); experiment: ITC; 25°C, iTC200; RBP SH3-II and SH3-III at 150 µM, SH3-II+III at 78 µM in the cell, titrated with 16 injections of 2.5 µl peptide at 2 mM; 10 mM Tris-HCl pH 7.4, 100 mM NaCl; 'One Set of Sites' model; details: both partners purified
[7] = target: T5, RBP SH3-II (residue 1318–1382; ITC and …); experiment: as above; details: both partners purified
[8] = target: T5, RBP SH3-II (residue 1318–1382; ITC and …); experiment: crystal structure; co-crystallisation of the SH3 domain with a fivefold molar excess of peptide, sitting drop, 291 K; details: both partners purified
[9] = target: T6, RBP SH3-II+III (ITC construct); experiment: ITC; 25°C, iTC200; RBP SH3-II and SH3-III at 150 µM, SH3-II+III at 78 µM in the cell, titrated with 16 injections of 2.5 µl peptide at 2 mM; 10 mM Tris-HCl pH 7.4, 100 mM NaCl; 'One Set of Sites' model; details: both partners purified
[10] = target: T7, RBP SH3-III (residue 1441–1507; …); experiment: crystal structure; co-crystallisation of the SH3 domain with a fivefold molar excess of peptide, sitting drop, 291 K; details: both partners purified

Molecule	mean ß-Gal4 units: RBP SH3-III (RBP SH3-III)	mean ß-Gal4 units: RBP SH3-II (RBP SH3-II)	Kd [3] [µM]	Kd [4] [µM]	Kd [5] [µM]	binding result [6]	also measured
LLGGSNFGSLADEFRNGGGGGIPPAVRSGQQRSFLSLKCGYLMDEDSSPDSERMQSLGDVDSGHSTAHSPNDFKSMSPQITSPVSQSPFPPPFGGVPFGQ [Aplip1-PxxP2, Y2H prey fragment of Aplip1 (100 AA) containing only the second PxxP motif]	0.2 ± 0.1 ß-Gal4 units	0.2 ± 0.0 ß-Gal4 units					
EDDELGDGLKVTLSSDGSLDTNDSFNSHRHHPLNHQDAIGGFLGMDTSGLGGNSAPVTIGASTDLLAPNTAATRRRRKLAEIAKNKKSSILHLLGGSNFGSLADEFRNGGGGGIPPAVRSGQQRSFLSLKCGYLMDEDS [Aplip1-AxxA1, Y2H prey fragment of Aplip1 (139 AA) with mutated first PxxP motif (P156 → A; P159 → A)]	0.2 ± 0.0 ß-Gal4 units	0.1 ± 0.1 ß-Gal4 units					
Ac-TRRRRKLPEIPKNKK-NH2 [Aplip1]							affinity relative to RBP binding of its synaptic ligands (Ca2+ channels/RIM) (RBP SH3-II+III): more than 10 fold; binding to RBP SH3-I (RBP SH3-I): could not detect any binding
EDDELGDGLKVTLSSDGSLDTNDSFNSHRHHPLNHQDAIGGFLGMDTSGLGGNSAPVTIGASTDLLAPNTAATRRRRKLPEIPKNKKSSILHLLGGSNFGSLADEFRNGGGGGIPPAVRSGQQRSFLSLKCGYLMDEDS [Aplip1-PxxP1, Y2H prey fragment of Aplip1 (139 AA) containing only the first PxxP motif]	29.1 ± 7.4 ß-Gal4 units	24.3 ± 6.6 ß-Gal4 units					mean ß-Gal4 units: RBP SH3-II* [1]: 0.1 ± 0.0 ß-Gal4 units; mean ß-Gal4 units: RBP SH3-III* [2]: 0.1 ± 0.0 ß-Gal4 units
B1			20	35.7	12.5	binds	binding result [7]: binds
B2			4.1	0.54	1.4	binds	binding result [8]: binds; binding result [9]: binds
B3			20.2	31.3	17.3	binds	binding result [8]: binds; binding result [10]: binds
B4			10.4	16	8.4	binds	binding result [7]: binds
